{
  "source": "paper PMC7920998",
  "origin": "cited, not measured here",
  "tested_on": "Glu122",
  "assay": "kinetics",
  "details": "enzyme reacting with O2 (non-native substrate); further details not given",
  "data": [
    {"substance": "Cytochrome c-dependent nitric oxide reductase (cNOR, PdNOR) (Paracoccus denitrificans)", "values": [
      {"measurement": "pKa", "value": "~ 6.6"}
    ]}
  ]
}
